Data taken from paper PMC12084609, “Structural insights into small-molecule agonist recognition and activation of complement receptor C3aR” (The EMBO Journal, 2025).
Where a chain is given by its changes, count along the chain named. “And” between values parts separate entries of the source, which are not always exact repeats. Identical values can stand only once.

Key:
C3aR S26^1.35A = biological target: T1, C3aR S26^1.35A (Homo sapiens, UniProt Q16581, S26A); experiment: GloSensor-based cAMP assay, C3aR mutant S26A; format: cell-based; conditions: for cAMP response (% Forskolin): S261.35A, single replicates
T1 construct: expressed in transfected cells; host or cells: HEK293T
T1 sequence (Q16581 1-482 S26A): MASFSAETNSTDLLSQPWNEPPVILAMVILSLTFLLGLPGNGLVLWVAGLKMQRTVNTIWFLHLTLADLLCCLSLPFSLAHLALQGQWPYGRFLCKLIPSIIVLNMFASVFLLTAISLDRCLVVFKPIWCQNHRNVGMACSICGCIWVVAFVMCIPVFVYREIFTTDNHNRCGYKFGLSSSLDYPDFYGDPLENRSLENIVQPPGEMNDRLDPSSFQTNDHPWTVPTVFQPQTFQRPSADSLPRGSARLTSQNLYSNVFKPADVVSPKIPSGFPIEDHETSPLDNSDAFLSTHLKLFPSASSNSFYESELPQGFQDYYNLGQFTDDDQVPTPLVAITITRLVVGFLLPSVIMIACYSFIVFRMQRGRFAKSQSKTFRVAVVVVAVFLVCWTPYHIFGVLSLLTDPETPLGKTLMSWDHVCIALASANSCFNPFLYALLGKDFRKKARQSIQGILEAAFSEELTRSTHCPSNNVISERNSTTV
Description: (§1) HEK293T cells were seeded on 6-well plates (NEST) and transfected with pGlosensor™-22F plasmids (Promega) and pcDNA3.1 plasmids encoding C3aR or its mutants an with N-terminal FLAG tag. After 48 h, cells were detached with Accutase solution (Sigma-Aldrich) and washed with PBS, and resuspended in assay buffer (CO2-independent medium with 0.5 mg mL^−1D-luciferin). 100,000–200,000 cells were seeded on 96-well white bottom plates (SPL) and incubated at 37 °C for 45 min followed by 45 min incubation at room temperature. After 90 min of incubation, basal luminescence signals were recorded. In total, 25 μl of test ligand with various concentrations and 1 μM Forskolin (Sigma-Aldrich) were treated to the cells and luminescence signals were measured by Tristar 2 LB 942 multimode reader (Berthold). […] Relative luminescence unit (%) was calculated with the signal of wells treated with vehicle as 0% and the signal of wells treated with 1 μM Forskolin as 100% (DiRaddo et al, [2014]). Nonlinear regression was performed using a three-parameter logistic equation.

C3aR R161A = conditions: quoted by Referee #2; ref https://doi.org/10.1038/s41589-023-01339-w; cited from earlier work
C3aR WT = biological target: T2, C3aR WT (Homo sapiens, UniProt Q16581); experiment: GloSensor-based cAMP assay, WT C3aR (HEK293T); format: cell-based
T2 construct: expressed in transfected cells; host or cells: HEK293T
T2 sequence (Q16581 1-482): T1 sequence (Q16581 1-482 S26A) with A26S
Description: as §1

## C3a: anaphylatoxin C3a, natural peptide ligand of C3aR (a 77-amino acid peptide), Sigma-Aldrich
C3aR S26^1.35A; Dunnett's multiple comparisons test, WT minus mutant
  Mean Diff. of pIC50, WT vs. S26A: 0.018
C3aR S26^1.35A; S26^1.35A relative to WT C3aR
  ΔpIC50 ± SE of Diff.: -0.018 ± 0.007
C3aR S26^1.35A; S26^1.35A, dose-response plot, read-out: IC50
  IC50: 2.4 nM
C3aR S26^1.35A; S26^1.35A, individual replicates
  pIC50 (Replicate): 8.46 and 8.90 and 8.92 and 8.44
C3aR S26^1.35A; S26^1.35A, mean of independent experiments
  pIC50 ± SEM (Mean): 8.68
C3aR S26^1.35A; Log[C3a (M)] -7
  cAMP response (% Forskolin): 6.63 % Forskolin and 16.74 % Forskolin and 7.89 % Forskolin and 6.95 % Forskolin
C3aR S26^1.35A; Log[C3a (M)] -8
  cAMP response (% Forskolin): 10.18 % Forskolin and 21.44 % Forskolin and 11.61 % Forskolin and 10.34 % Forskolin
C3aR S26^1.35A; Log[C3a (M)] -9
  cAMP response (% Forskolin): 93.63 % Forskolin and 62.67 % Forskolin and 56.93 % Forskolin and 99.13 % Forskolin
C3aR S26^1.35A; Log[C3a (M)] -10
  cAMP response (% Forskolin): 100.97 % Forskolin and 93.52 % Forskolin and 93.48 % Forskolin and 106.03 % Forskolin
C3aR S26^1.35A; Log[C3a (M)] -11
  cAMP response (% Forskolin): 99.94 % Forskolin and 102.62 % Forskolin and 98.56 % Forskolin and 106.48 % Forskolin
C3aR S26^1.35A; Log[C3a (M)] -12
  cAMP response (% Forskolin): 101.64 % Forskolin and 96.07 % Forskolin and 97.79 % Forskolin and 99.89 % Forskolin
C3aR R161A
  decrease of potency toward C3aR by R161A: ~ 1000 fold
C3aR WT; Log[ligand (M)] -7, individual replicates
  cAMP response (% Forskolin): 13.23 % Forskolin and 9.10 % Forskolin and 12.07 % Forskolin and 14.17 % Forskolin and 11.07 % Forskolin and 5.64 % Forskolin and 5.88 % Forskolin and 10.80 % Forskolin and 18.77 % Forskolin and 9.30 % Forskolin and 7.84 % Forskolin and 11.11 % Forskolin and 5.15 % Forskolin and 8.46 % Forskolin and 12.88 % Forskolin and 7.97 % Forskolin and 4.89 % Forskolin and 13.21 % Forskolin and 8.34 % Forskolin and 9.36 % Forskolin and 10.44 % Forskolin
C3aR WT; Log[ligand (M)] -8, individual replicates
  cAMP response (% Forskolin): 14.46 % Forskolin and 11.08 % Forskolin and 11.75 % Forskolin and 14.58 % Forskolin and 33.21 % Forskolin and 8.44 % Forskolin and 9.26 % Forskolin and 14.67 % Forskolin and 23.44 % Forskolin and 12.45 % Forskolin and 9.97 % Forskolin and 12.70 % Forskolin and 7.51 % Forskolin and 11.02 % Forskolin and 17.00 % Forskolin and 9.96 % Forskolin and 6.25 % Forskolin and 18.05 % Forskolin and 9.98 % Forskolin and 10.68 % Forskolin and 14.94 % Forskolin
C3aR WT; Log[ligand (M)] -9, individual replicates
  cAMP response (% Forskolin): 89.10 % Forskolin and 91.75 % Forskolin and 55.83 % Forskolin and 67.46 % Forskolin and 97.65 % Forskolin and 80.78 % Forskolin and 91.72 % Forskolin and 89.77 % Forskolin and 62.11 % Forskolin and 58.26 % Forskolin and 94.14 % Forskolin and 92.02 % Forskolin and 88.40 % Forskolin and 88.60 % Forskolin and 88.28 % Forskolin and 92.79 % Forskolin and 82.03 % Forskolin and 98.67 % Forskolin and 72.46 % Forskolin and 83.05 % Forskolin and 92.23 % Forskolin
C3aR WT; Log[ligand (M)] -10, individual replicates
  cAMP response (% Forskolin): 100.49 % Forskolin and 92.00 % Forskolin and 96.47 % Forskolin and 95.65 % Forskolin and 99.73 % Forskolin and 94.19 % Forskolin and 91.55 % Forskolin and 96.59 % Forskolin and 91.09 % Forskolin and 100.53 % Forskolin and 103.10 % Forskolin and 100.18 % Forskolin and 107.39 % Forskolin and 101.42 % Forskolin and 99.05 % Forskolin and 90.86 % Forskolin and 91.78 % Forskolin and 95.04 % Forskolin and 92.70 % Forskolin and 92.81 % Forskolin and 96.03 % Forskolin
C3aR WT; Log[ligand (M)] -11, individual replicates
  cAMP response (% Forskolin): 101.69 % Forskolin and 104.79 % Forskolin and 99.76 % Forskolin and 97.79 % Forskolin and 100.01 % Forskolin and 95.95 % Forskolin and 100.56 % Forskolin and 98.17 % Forskolin and 98.43 % Forskolin and 104.54 % Forskolin and 103.48 % Forskolin and 99.03 % Forskolin and 107.10 % Forskolin and 101.90 % Forskolin and 98.42 % Forskolin and 97.15 % Forskolin and 94.72 % Forskolin and 92.05 % Forskolin and 96.59 % Forskolin and 94.55 % Forskolin and 98.62 % Forskolin
C3aR WT; Log[ligand (M)] -12, individual replicates
  cAMP response (% Forskolin): 96.64 % Forskolin and 93.74 % Forskolin and 99.06 % Forskolin and 103.59 % Forskolin and 106.40 % Forskolin and 103.79 % Forskolin and 101.64 % Forskolin and 99.02 % Forskolin and 93.95 % Forskolin and 101.82 % Forskolin and 99.95 % Forskolin and 96.51 % Forskolin and 98.16 % Forskolin and 96.67 % Forskolin and 94.02 % Forskolin and 101.30 % Forskolin and 98.69 % Forskolin and 95.26 % Forskolin and 98.94 % Forskolin and 96.13 % Forskolin and 98.01 % Forskolin
C3aR WT; WT C3aR, 1 μM Forskolin, mean of independent experiments
  pIC50 ± SEM (Mean): 8.56
C3aR WT; WT C3aR, Figure EV1B numerical data, curve fit
  pIC50 Value: 8.52
C3aR WT; WT C3aR, decrease in cAMP levels, read-out: IC50
  IC50: 2.87 nM
C3aR WT; WT C3aR, individual replicates
  pIC50 (Replicate): 8.46 and 8.98 and 8.82 and 8.27 and 8.58 and 8.47 (4×) and 8.89 and 8.95 and 8.48 and 8.53 (2×) and 8.50 and 8.45 and 8.54 and 8.67 and 8.44
